Measurements as given in the supplement of paper PMC10567573.

B1: PTPRD (parent)
chain: ELDELLKEISRKRRSIRYGREVEL

Variants of: B1
Assay: protein stability index of a GFP-peptide fusion (GPS, HEK-293T) (PSI 1-6); higher = more stable
Conditions: c terminus: a fixed tail appended
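Also: lentivirally expressed fusions sorted by FACS into six bins by GFP to DsRed ratio, PSI derived from sequencing read proportions per bin multiplied by bin number.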

Protein stability index: each site, then its substitutions
I9: H 3.09 | K 3.96
R20: Q 2.42 | N 2.8 | T 2.45 | S 3.33 | V 1.8 | F 1.64 | W 1.43 | G 2.23 | Y 1.89 | M 2.02 | L 1.84 | A 2.85 | I 2.11 | K 2.17 | H 2.08
G19: W 2.9 | V 3.13 | I 2.05 | H 2.41 | A 2.34 | L 2.13 | Q 2.33 | M 2.41 | P 2.17 | E 2.71 | K 2.06
E21: F 2.22 | D 1.79 | G 2.22 | Q 2.13 | V 1.86 | M 1.86 | H 2.06 | T 3.01 | P 2.71 | I 1.82 | R 2.23 | K 2.09 | N 1.93 | L 2.12 | A 2.16 | S 1.86
L5: G 3.96 | I 2.45 | E 4.15 | C 3.12 | D 3.73 | A 3.07 | F 2.69 | N 2.69 | K 3.61 | M 3.25 | H 4.08 | W 2.35 | S 3.6
K7: C 2.33 | V 2.07 | N 2.16 | H 2.4 | L 2.72 | W 2.19 | S 2.6 | Q 2.46 | F 2 | P 3.12 | Y 2.77 | M 2.26
D3: R 1.86 | A 1.76 | M 1.65 | L 1.63 | T 1.8 | W 1.75 | S 2.57 | Q 2.62 | Y 2.12 | N 3.35 | K 2.38 | G 1.67 | F 2.12 | C 1.73 | I 3.46
R13: F 2.06 | E 3.07 | H 2.14 | Y 1.43 | T 2.28 | A 2.38 | Q 2.36 | V 1.55 | K 2.54 | P 3.3 | W 1.72 | D 4.49 | C 1.8 | I 2.23 | G 2.96 | M 2.21 | N 3
E23: P 2.56 | F 2.05 | C 1.96 | T 2.34 | A 2.31 | M 2.08 | L 2.85 | H 2.51 | I 2.38 | S 2.47 | N 2.54 | K 1.74 | V 2.57 | Q 2.25
E1: S 4.1 | T 3.25 | G 2.52 | W 2.69 | A 2.54 | F 1.83 | M 2.73 | H 2.47 | C 2.07 | K 2.26 | I 1.77 | D 2.3 | N 2.56 | R 2.17
Y18: K 2.46 | C 1.67 | M 2.22 | W 1.84 | E 2.96 | A 2.13 | D 2.6 | G 2.51 | N 2.74 | V 1.95 | I 2.35 | R 2.33 | F 2.33
L24: P 2.89 | I 2.42 | S 2.69 | G 2.5 | H 2.91 | C 2.38 | D 2.33 | M 2.73 | N 2.97 | R 3.13 | K 2.33 | Y 2.54 | T 2.86 | W 2.42 | Q 2.32
K12: D 2.39 | L 1.95 | P 2.53 | A 1.99 | R 2.49 | F 1.29 | W 1.66 | V 2.23 | C 2.49 | S 2.63
